Measurements as given in patent CN114057881A (HANGZHOU XIANZHI BIOTECHNOLOGY CO LTD, dated 2022).

Molecular target: T1, 牛血清白蛋白 (bovine, UniProt P02769 25-607)
T1 construct: Carrier protein control, without ketamine, in the ELISA screen; also called BSA
Assay: ELISA, BSA coated at 1 μg/mL, purified antibody, HRP secondary antibody, OD450

T1 sequence (P02769 25-607 limits assumed): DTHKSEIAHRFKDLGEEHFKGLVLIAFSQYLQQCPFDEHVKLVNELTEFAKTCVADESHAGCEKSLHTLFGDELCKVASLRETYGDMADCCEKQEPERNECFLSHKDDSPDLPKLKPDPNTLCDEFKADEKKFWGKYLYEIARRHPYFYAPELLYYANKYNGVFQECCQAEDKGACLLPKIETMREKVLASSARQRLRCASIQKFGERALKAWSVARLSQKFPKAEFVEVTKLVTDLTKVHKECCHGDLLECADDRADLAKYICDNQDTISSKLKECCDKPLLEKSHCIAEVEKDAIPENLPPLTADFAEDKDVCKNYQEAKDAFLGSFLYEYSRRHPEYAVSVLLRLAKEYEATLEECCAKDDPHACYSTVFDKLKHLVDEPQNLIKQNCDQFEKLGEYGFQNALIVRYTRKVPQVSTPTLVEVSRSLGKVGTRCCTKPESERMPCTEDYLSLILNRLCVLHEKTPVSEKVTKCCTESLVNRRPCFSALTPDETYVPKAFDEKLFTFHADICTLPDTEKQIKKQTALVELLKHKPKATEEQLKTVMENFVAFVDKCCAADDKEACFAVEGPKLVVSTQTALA

B1: 抗氯胺酮(KET)特异性抗体6B2 (antibody, V domains shown)
VH: EVQLQQSGAELLKPGASVKLSCTASGFNIKDTYIHWVKQRPEQGLEWIGRIDPANGHTYYDPQFQGKATLTADTSSNTAYLQLSSLTSEDSAIYYCARFGEDWGQGTLVTVSA
VL: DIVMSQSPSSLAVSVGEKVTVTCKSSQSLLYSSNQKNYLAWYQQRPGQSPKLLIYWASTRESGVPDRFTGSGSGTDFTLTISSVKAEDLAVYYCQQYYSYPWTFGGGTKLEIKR
notes: also called 6B2单抗
binding result: no binding

B2: 抗氯胺酮(KET)特异性抗体4A1 (antibody, V domains shown)
VH: EVRLEESGGGLVQPGGSMKLSCVASGFTFSNYWMNWVRQSPEKGLEWVDEIKLKSNNYETHCVESVKGRFTISRDDSKSSVYLQMNNLRAEDTGIYYCARRGYGTYYAMDYWGQGTSVIVSS
VL: DVQITQSPSYLAASPGETITINCRASKSIRKYLAWYQEKPGKTNKLLIYSGSTLRSGTPSRFSGSGSGTDFTLTISSLEPEDFAMYYCQQHNEYPYTFGGGTKLEIKR
notes: also called 4A1单抗
binding result: no binding
